# Laboratory results as given in patent US20170157165, “APTAMER FOR FGF2 AND USE THEREOF” (RIBOMIC INC., published 2017).
# B1: aptamer ID 3(8) (ssRNA)
# RNA: GGGAUACUAGGGCAUUAAUGUUACCAGUGUAGUCCC
# modifications: all C and U 2'-F; 2'-OMe at G1,G2,G3,A4,A9,G10,G11,A14,A17,A18,G20,A23,A26; other purines 2'-OH; 3' idT
# B2: aptamer ID 3(36) (ssRNA)
# RNA: GGGAUACUAGGGCAUUAAUGUUACCAGUGUAGUCCC
# modifications: 2'-F at U8,U16,U21,U28,U30; 2'-OH at G12,G27,G29; all others 2'-OMe; 5' PEG 80K (GL4-800TS)-C6; 3' idT
# B3: aptamer ID 3(40) (ssRNA)
# RNA: GGGAUACUAGGGCAUUAAUGUUACCAGUGUAGUCCC
# modifications: 2'-F at U8,U16,U21,U28,U30; 2'-OH at G12,G27,G29; all others 2'-OMe; 5' PEG 40K (GL2-400TS)-ssH; 3' idT
# B4: aptamer ID 3(17) (ssRNA)
# RNA: GGGAUACUAGGGCAUUAAUGUUACCAGUGUAGUCCC
# modifications: 2'-OMe at G1,G2,G3,A4,U5,A9,G10,G11,A14,A17,A18,G20,A23,A26; other C and U 2'-F; other purines 2'-OH
# B5: aptamer ID 3(38) (ssRNA)
# RNA: GGGAUACUAGGGCAUUAAUGUUACCAGUGUAGUCCC
# modifications: 2'-F at U8,U16,U21,U28,U30; 2'-OH at G12,G27,G29; all others 2'-OMe; 5' PEG 10K (ME-100TS)-C6; 3' idT
# B6: aptamer ID 3(39) (ssRNA)
# RNA: GGGAUACUAGGGCAUUAAUGUUACCAGUGUAGUCCC
# modifications: 2'-F at U8,U16,U21,U28,U30; 2'-OH at G12,G27,G29; all others 2'-OMe; 5' PEG 10K 4-branched (PTE-100CS)-C6; 3' idT
# B7: aptamer ID 3(33) (ssRNA)
# RNA: GGGAUACUAGGGCAUUAAUGUUACCAGUGUAGUCCC
# modifications: 2'-F at U8,U16,U21,U28,U30; 2'-OH at G12,G27,G29; all others 2'-OMe; PS between G29 and U30
# B8: aptamer ID 3(16) (ssRNA)
# RNA: GGGAUACUAGGGCAUUAAUGUUACCAGUGUAGUCCC
# modifications: 2'-OMe at G1,G2,G3,A4,C7,A9,G10,G11,A14,A17,A18,G20,A23,A26; other C and U 2'-F; other purines 2'-OH
# B9: aptamer ID 3(15) (ssRNA)
# RNA: GGGAUACUAGGGCAUUAAUGUUACCAGUGUAGUCCC
# modifications: 2'-OMe at G1,G2,G3,A4,A9,G10,G11,A14,A17,A18,G20,A23,C24,C25,A26; other C and U 2'-F; other purines 2'-OH
# B10: aptamer ID 3(32) (ssRNA)
# RNA: GGGAUACUAGGGCAUUAAUGUUACCAGUGUAGUCCC
# modifications: 2'-F at U8,U16,U21,U28,U30; 2'-OH at G12,G27,G29; all others 2'-OMe; PS between U28 and G29
# B11: aptamer ID 3(31) (ssRNA)
# RNA: GGGAUACUAGGGCAUUAAUGUUACCAGUGUAGUCCC
# modifications: 2'-F at U8,U16,U21,U28,U30; 2'-OH at G12,G27,G29; all others 2'-OMe; PS between G27 and U28
# B12: aptamer ID 3(13) (ssRNA)
# RNA: GGGAUACUAGGGCAUUAAUGUUACCAGUGUAGUCCC
# modifications: 2'-OMe at G1,G2,G3,A4,A9,G10,G11,A14,U15,U16,A17,A18,U19,G20,A23,A26; other C and U 2'-F; other purines 2'-OH
# B13: aptamer ID 3(29) (ssRNA)
# RNA: GGGAUACUAGGGCAUUAAUGUUACCAGUGUAGUCCC
# modifications: 2'-F at U8,U16,U21,U28,U30; 2'-OH at G12,G27,G29; all others 2'-OMe; PS between G12 and C13
# B14: aptamer ID 3(37) (ssRNA)
# RNA: GGGAUACUAGGGCAUUAAUGUUACCAGUGUAGUCCC
# modifications: 2'-F at U8,U16,U21,U28,U30; 2'-OH at G12,G27,G29; all others 2'-OMe; 5' PEG 40K (Y-NHS-40K)-ssH; 3' idT
# B15: aptamer ID 3(14) (ssRNA)
# RNA: GGGAUACUAGGGCAUUAAUGUUACCAGUGUAGUCCC
# modifications: 2'-OMe at G1,G2,G3,A4,A9,G10,G11,A14,A17,A18,G20,U22,A23,A26; other C and U 2'-F; other purines 2'-OH
# B16: aptamer ID 3(30) (ssRNA)
# RNA: GGGAUACUAGGGCAUUAAUGUUACCAGUGUAGUCCC
# modifications: 2'-F at U8,U16,U21,U28,U30; 2'-OH at G12,G27,G29; all others 2'-OMe; PS between A26 and G27
# B17: aptamer ID 3(12) (ssRNA)
# RNA: GGGAUACUAGGGCAUUAAUGUUACCAGUGUAGUCCC
# modifications: 2'-OMe at G1,G2,G3,A4,A9,G10,G11,A14,A17,A18,G20,A23,A26,U33,C34,C35,C36; other C and U 2'-F; other purines 2'-OH; 3' idT
# B18: aptamer ID 3(28) (ssRNA)
# RNA: GGGAUACUAGGGCAUUAAUGUUACCAGUGUAGUCCC
# modifications: 2'-F at U8,U16,U21,U28,U30; 2'-OH at G12,G27,G29; all others 2'-OMe; PS between G11 and G12
# Columns and labels:
# [1] = biological target: T1, FGF2 (Homo sapiens, UniProt P09038 P09038:135-288); assay: inhibition; SPR inhibition of FGF2-FGFR1alpha(IIIc); each 0.1 uM; details: tags: Peprotech
# T1 sequence (P09038 135-288, one chain of several): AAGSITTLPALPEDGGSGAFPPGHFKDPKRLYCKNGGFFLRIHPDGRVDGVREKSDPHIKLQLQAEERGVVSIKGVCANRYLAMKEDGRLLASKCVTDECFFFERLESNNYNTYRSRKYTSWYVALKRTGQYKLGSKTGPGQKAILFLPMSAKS
# Description: BIAcore2000 manufactured by BIAcore was used for the measurement. As directed in BIAcore Company's protocol, Protein A (21181, manufactured by PIERCE) was immobilized on a CM5 sensor chip. About 1,000 RU of human FGFR1α (IIIc), R2α (IIIc), R3 (IIIc), R4 (manufactured by R&D Systems) fused with the Fc portion of IgG (manufactured by R&D systems) was each immobilized thereon. As analyte, a mixture of FGF2 (0.1 μM), heparin (0.1 μM) (manufactured by Pfizer) and aptamer (0.15 μM) was flown. Before an inhibitory test, a mixture of FGF2 and heparin was confirmed to bind to 4 kinds of receptors. […] A sensorgram showing that the aptamer shown by aptamer ID 1 inhibits binding of FGF2 and FGFR1α(IIIc), 2α(IIIc), 3(IIIc), 4 is shown in FIG. 2.
# In addition, the inhibitory rate against each of the 4 kinds of receptors was determined. The inhibitory rate was determined with the maximum binding amount of the FGF2 and heparin mixture as 0, and the binding amount with an injection buffer alone as 100. The binding amount here means the RU value of the peak top of sensorgram. The inhibitory rate was calculated. […] The inhibitory rate of other aptamers was not more than 50%.
# To enhance FGF2-binding activity, stability, drug deliverability and the like, the nucleic acids shown by aptamer IDs 3(1)-3(40), aptamer IDs 4 and 4(1)-4(4), aptamer ID 5 and aptamer ID 6 were chemically synthesized based on the aptamer shown in SEQ ID NO: 3. Here, the aptamer shown by aptamer ID 4 is the aptamer shown by aptamer ID 3(19) wherein one G(M) at the 5′-terminal and one C(M) at the 3′-terminal have been deleted. The aptamer shown by aptamer ID 5 is the aptamer shown by aptamer ID 3(19) wherein one G(M) has been added at the 5′-terminal and one C(M) has been added at the 3′-terminal. The aptamer shown by aptamer ID 6 is the aptamer shown by aptamer ID 3(19) wherein A(M) alone has been added at the 5′-terminal. These nucleic acids were produced by chemical synthesis.
# [2] = biological target: T1, FGF2; assay: cell_activity; HUVEC proliferation, FGF2 0.58 nM; details: tags: Peprotech
# Description: Human umbilical vein endothelial cells (HUVEC) were seeded in a 96 well flat bottom plate at 5×10³ cells per well, and cultured overnight using a medium EGM-2 Bullet Kit for endothelial cells (CC-3162 manufactured by Lonza) containing 2% fetal bovine serum and growth factors. Thereafter, the medium was discarded, the cells were washed twice with PBS buffer, and a mixture of the aptamer shown by aptamer ID 3(21) (5, 2.5, 1, 0.5 nM) and FGF2 (final concentration 0.5 nM), dissolved in a medium exclusively for endothelial cells containing 2% fetal bovine serum, was added. After 72 hr, viable cell number was examined using Cell Counting Kit-8. For the measurement of absorbance, a microplate reader (450 nm) was used. One sample was measured at n=3. As a positive control, anti-FGF2 antibody Anti-FGF, basic (Ab-3) Mouse mAb (3H3) (manufactured by Calbiochem) were used. With the OD value per well obtained by the addition of FGF2 alone and culture of the cells for 3 days as inhibitory activity 0%, and that of the cell obtained by FGF2 free culture for 3 days as inhibitory activity 100%, the inhibitory activity of the aptamer was calculated from the OD value per well obtained by culturing with the addition of a mixture of FGF2 and the aptamer. As a result, it was shown that the aptamer shown by aptamer ID 3(21) has a high inhibitory activity against FGF2.
# By a method similar to the above except that the 96 well flat bottom plate was changed to a collagen-coated one, the activity of various aptamers was evaluated. The concentration of FGF2 added was 0.58 nM. As a negative control RNA, Macugen (registered trade mark) sequence without addition of PEG, and with C6 modification of the 5′-terminal and idT modification of the 3′-terminal was used.
Binder,activity [1] [%],IC50 [2] [nM]
B1,84,27
"GGGAUACUAGGGCAUUAAUGUUACCAGUGUAGUCCC (ssRNA, all C and U 2'-F; 2'-OMe at G1,G2,G3,A4; other purines 2'-OH) [aptamer ID 3(2)]",89,
"GGGAUACUAGGGCAUUAAUGUUACCAGUGUAGUCCC (ssRNA, 2'-F at U8,U16,U21,U28,U30; 2'-OH at G12,G27,G29; all others 2'-OMe) [aptamer ID 3(18)]",89,2.6
"GGGAUACUAGGGCAUUAAUGUUACCAGUGUAGUCCC (ssRNA, all C and U 2'-F; 2'-OMe at A23; other purines 2'-OH) [aptamer ID 3(6)]",78,
B2,98,
"GGGAUACUAGGGCAUUAAUGUUACCAGUGUAGUCCC (ssRNA, all C and U 2'-F; 2'-OMe at A26; other purines 2'-OH) [aptamer ID 3(7)]",89,
"GGGAUACUAGGGCAUUAAUGUUACCAGUGUAGUCCC (ssRNA, 2'-F at U8,U16,U21,U28,U30; G12 DNA (2'-H); 2'-OH at G27,G29; all others 2'-OMe) [aptamer ID 3(23)]",91,5.3
"GGGAUACUAGGGCAUUAAUGUUACCAGUGUAGUCCC (ssRNA, all C and U 2'-F; 2'-OMe at G11; other purines 2'-OH) [aptamer ID 3(3)]",87,
B3,97,
B4,88,
B5,97,
"GGGAUACUAGGGCAUUAAUGUUACCAGUGUAGUCCC (ssRNA, 2'-F at U8,U16,U21,U28,U30; 2'-OH at G12,G27,G29; all others 2'-OMe; 5' idT) [aptamer ID 3(20)]",96,
B6,97,
B7,90,4
"GGGAUACUAGGGCAUUAAUGUUACCAGUGUAGUCCC (ssRNA, all C and U 2'-F; 2'-OMe at G32; other purines 2'-OH) [aptamer ID 3(10)]",89,
B8,87,7.9
B9,86,14
B10,91,4

Binder,activity [1] [%],IC50 [2] [nM]
B11,91,10
B12,88,15
"GGGAUACUAGGGCAUUAAUGUUACCAGUGUAGUCCC (ssRNA, all C and U 2'-F; 2'-OMe at A9; other purines 2'-OH) [aptamer ID 3(5)]",87,
B13,91,3.1
B14,97,
"GGGAUACUAGGGCAUUAAUGUUACCAGUGUAGUCCC (ssRNA, 2'-F at U8,U16,U21,U28,U30; G27 DNA (2'-H); 2'-OH at G12,G29; all others 2'-OMe) [aptamer ID 3(24)]",90,7.3
"GGGAUACUAGGGCAUUAAUGUUACCAGUGUAGUCCC (ssRNA, all C and U 2'-F; 2'-OMe at G10; other purines 2'-OH) [aptamer ID 3(4)]",89,
B15,87,12
"GGGAUACUAGGGCAUUAAUGUUACCAGUGUAGUCCC (ssRNA, 2'-F at U8,G12,U16,U21,G27,U28,U30; 2'-OH at G29; all others 2'-OMe; 3' idT) [aptamer ID 3(35)]",84,
"GGGAUACUAGGGCAUUAAUGUUACCAGUGUAGUCCC (ssRNA, 2'-F at U8,G12,U16,U21,G27,U28,G29,U30; all others 2'-OMe; 3' idT) [aptamer ID 3(34)]",91,
"GGGAUACUAGGGCAUUAAUGUUACCAGUGUAGUCCC (ssRNA, 2'-F at U8,U16,U21,U28,G29,U30; 2'-OH at G12,G27; all others 2'-OMe) [aptamer ID 3(27)]",99,3.7
"GGGAUACUAGGGCAUUAAUGUUACCAGUGUAGUCCC (ssRNA, all C and U 2'-F; 2'-OMe at A6; other purines 2'-OH) [aptamer ID 3(9)]",89,
"GGGAUACUAGGGCAUUAAUGUUACCAGUGUAGUCCC (ssRNA, 2'-F at U8,G12,U16,U21,U28,U30; 2'-OH at G27,G29; all others 2'-OMe) [aptamer ID 3(25)]",90,5.1
B16,99,3.3
B17,89,21
"GGGAUACUAGGGCAUUAAUGUUACCAGUGUAGUCCC (ssRNA, all C and U 2'-F; 2'-OMe at A31; other purines 2'-OH) [aptamer ID 3(11)]",88,
"GGGAUACUAGGGCAUUAAUGUUACCAGUGUAGUCCC (ssRNA, 2'-F at U8,U16,U21,G27,U28,U30; 2'-OH at G12,G29; all others 2'-OMe) [aptamer ID 3(26)]",99,3
B18,91,4
